This is an account of results in patent US20250297019A1 (Genentech, published 2025).

Assay [1] has as its target T1, human CCR8 (human, UniProt P51685 1-355). Briefly: cell-based or functional assay.
For assay [2], the target named is T1, human CCR8. As to the kind of experiment: cell-based or functional assay. This is another data set of the same source.
A further assay addresses T2, mouse CCR8 (mouse, UniProt P56484 1-353).
T2 construct: format of the KD assay of the anti-murine antibody is not described; also called mCCR8; murine CCR8
T2 sequence: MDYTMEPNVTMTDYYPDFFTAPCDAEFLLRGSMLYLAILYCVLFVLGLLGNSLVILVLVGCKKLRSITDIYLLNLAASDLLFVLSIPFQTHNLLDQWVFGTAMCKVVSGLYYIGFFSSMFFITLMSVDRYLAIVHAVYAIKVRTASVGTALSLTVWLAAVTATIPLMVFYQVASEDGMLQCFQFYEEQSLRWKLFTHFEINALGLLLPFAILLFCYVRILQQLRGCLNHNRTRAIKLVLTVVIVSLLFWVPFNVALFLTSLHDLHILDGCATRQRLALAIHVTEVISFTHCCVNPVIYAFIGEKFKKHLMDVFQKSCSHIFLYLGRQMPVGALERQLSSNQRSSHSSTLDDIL
Briefly: assay not described ('in vitro assays').

For assay [3], the target named is T1, human CCR8. As to the kind of experiment: cell-based or functional assay. This is another data set of the same source.
Assay [4] concerns the target T1, human CCR8. As to the kind of experiment: cell-based or functional assay. This is another data set of the same source.
Assay [5] addresses T3, human Fc gamma receptor IIIa F158, GST fusion (human, UniProt P08637 17-208).
T3 construct: extracellular domain; also called GST-FcgR3a.F158; FcgR3a.F158 protein; not shown: Gly-6xHis-glutathione S-transferase (GST) tag at the C-terminus
As to the kind of experiment: ELISA, captured GST-FcgR3a. On the procedure: (§1) Briefly, an anti-GST antibody was coated on Nunc MAXISORP™ plates. GST-FcgR3a.V158 and GST-FcgR3a.F158 were captured at 500 ng/mL. Plates were then washed and then serially diluted anti-CCR8 antibodies starting at 100 μg/mL were incubated on the plate for 1 hour at room temperature. Plates were washed and bound antibody was detected by an HRP-conjugated anti-human IgG secondary antibody. Absorbance at 450 nm was measured by a plate reader. The data were fitted using a 4-parameter logistic curve in SOFTM^AX® Pro.
Background: In an ELISA, binding on a coated surface is turned into a signal by an enzyme label.

Assay [6] has as its target T4, human Fc gamma receptor IIIa V158, GST fusion (human, UniProt P08637 17-208).
T4 construct: extracellular domain; also called GST-FcgR3a.V158; FcgR3a.V158 protein; not shown: Gly-6xHis-glutathione S-transferase (GST) tag at the C-terminus
Briefly: ELISA, captured GST-FcgR3a. How it is done: as §1

Another assay deals with T5, cynomolgus monkey CCR8 (cynomolgus monkey, UniProt O97665 1-356 (rhesus entry)).
T5 construct: On CHO cells stably expressing cyno CCR8 or on cyno blood Treg cells; also called cyno CCR8; cynoCCR8
T5 sequence (O97665 other isoform, or with tags, fused parts or gaps): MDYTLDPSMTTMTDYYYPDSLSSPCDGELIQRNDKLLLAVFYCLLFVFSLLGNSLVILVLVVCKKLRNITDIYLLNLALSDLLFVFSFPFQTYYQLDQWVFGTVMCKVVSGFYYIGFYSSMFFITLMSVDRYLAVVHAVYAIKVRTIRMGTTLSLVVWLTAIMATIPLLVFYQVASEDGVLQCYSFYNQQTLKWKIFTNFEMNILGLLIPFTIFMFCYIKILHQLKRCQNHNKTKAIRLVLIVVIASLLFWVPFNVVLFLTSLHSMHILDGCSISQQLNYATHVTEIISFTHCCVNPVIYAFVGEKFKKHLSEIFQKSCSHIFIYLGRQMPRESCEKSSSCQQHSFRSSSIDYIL
Briefly: competition of unlabelled antibody with a fixed concentration of the 125I-labelled same antibody on CHO cells stably expressing cyno CCR8 (CHO-cynoCCR8), filter plates, gamma counting.

T3 sequence (P08637 17-208): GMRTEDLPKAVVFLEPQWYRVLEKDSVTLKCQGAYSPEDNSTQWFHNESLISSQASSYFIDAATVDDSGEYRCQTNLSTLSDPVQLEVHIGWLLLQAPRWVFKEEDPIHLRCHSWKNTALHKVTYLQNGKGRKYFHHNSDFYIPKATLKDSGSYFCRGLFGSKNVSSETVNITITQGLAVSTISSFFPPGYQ
T4 sequence (P08637 17-208 F176V): as the sequence (P08637 17-208) above, with F160V counted along it

B1: hu.Ab4.H1L1 (antibody, human IgG1, V domains shown)
VH: EQQLLESGGGLVQPGGSLRLSCAVSGFSLSNYAMIWVRQAPGKGLEWVGTISLGGYTYYANWAKGRFTISKDSSKTTVYLQMNSLRAEDTAVYFCARARWSTDSAIYTYAFDPWGPGTLVTVSS
VL: DYQMTQSPSSLSASVGDRVTITCQASQSISSYLSWYQQKPGKRPKLLIYKASTLASGVPSRFSGSGSGTDFTLTISSLQPEDFATYYCQQGYTSSNIDNIFGGGTKVEIK
Turning to B1, the “ADCC EC50 (calcein release; NK-92_F158 effector cells, CHO/hCCR8.Gna15 target cells)” value with human CCR8 [1] is 80 pM. For the same molecule, the “IC50 of CCL1 blocking (Ca2+ influx, CHO/hCCR8.Gna15 cells, 20 nM CCL1)” value with human CCR8 [2] came to 57900 pM.

B2: mouse surrogate anti-CCR8 mAb (antibody, mouse IgG2a, kappa, V domains shown)
VH: QSVKESGGRLVTPGGSLTLTCTVSRIDLNEYSMAWVRQAPGKGLEWIGYIDAGSGSAYYASWAKGRFTISKTSSTTVDLEMTTLTTEDTATYFCARDVYPGYTTGTNLGLWGPGTLVTVSS
VL: AAVLTQTPASVSAAVGGTVSISCRSSKSVYSNYLSWYQQKPGQPPKLLIYRASTLTPGVPSRFKGSGSGTQFSLTIRDVQSADAGSYYCAGGYSSGSDNTFGGGTKLEIKR
notes: Chimeric rabbit-derived murine IgG2a; also called Anti-mCCR8; anti-murine CCR8 antibody
With B2, the Kd in the assay with mouse CCR8 amounted to 218 pM.

B3: hu.Ab4.H12L3 (antibody, human IgG1, kappa)
heavy: not shown
light: DYQMTQSPSSLSASVGDRVTITCQASQSISSYLSWYQQKPGKAPKLLIYKASTLASGVPSRFSGSGSGTDFTLTISSLQPEDFATYYCQQGYTSSNIDNIFGGGTKVEIKRTVAAPSVFIFPPSDEQLKSGTASVVCLLNNFYPREAKVQWKVDNALQSGNSQESVTEQDSKDSTYSLSSTLTLSKADYEKHKVYACEVTHQGLSSPVTKSFNRGEC
Consider B3, for which the “IC50 of ligand blocking (Ca2+ influx, 20 nM CCL1)” value with human CCR8 [3] came out at 57900 pM. In the assay with human CCR8 [4], the “ADCP EC50, macrophages of donor HR/FF (FIG. 14A)” value (“ADCP EC50 … (FIG. 14A)” below) is 350 pM; the “ADCP EC50, macrophages of donor RR/FF (FIG. 14B)” value (from here on “ADCP EC50 … (FIG. 14B)”) is 810 pM; the “ADCP EC50, macrophages of donor RR/VF (FIG. 14D)” value (shortened to “ADCP EC50 … (FIG. 14D)”) was determined as 410 pM.

B4: Afuc.hu.Ab4.H12L3 (antibody, human IgG1, kappa)
heavy: not shown
light: DYQMTQSPSSLSASVGDRVTITCQASQSISSYLSWYQQKPGKAPKLLIYKASTLASGVPSRFSGSGSGTDFTLTISSLQPEDFATYYCQQGYTSSNIDNIFGGGTKVEIKRTVAAPSVFIFPPSDEQLKSGTASVVCLLNNFYPREAKVQWKVDNALQSGNSQESVTEQDSKDSTYSLSSTLTLSKADYEKHKVYACEVTHQGLSSPVTKSFNRGEC
modifications: afucosylated Fc N-glycan (position Asn 299 as printed); about 80% to about 95% afucosylation
notes: also called afucosylated hu.Ab4.H12L3; Afuc.Ab4.H12L3
Turning to B4, in assay [5], the “fold increase in binding potency over the fucosylated counterpart” value (“fold increase in binding potency” below) was ~10 fold. For the same molecule, the “fold increase in binding potency” value in assay [6] is ~10 fold. In the assay with human CCR8 [4], the “ADCP EC50 … (FIG. 14A)” value amounted to 25 pM; the “ADCP EC50, macrophages of donor HR/FF (FIG. 14E)” value turned out to be 35 pM; the “ADCP EC50, macrophages of donor HR/VF (FIG. 14C)” value was found to be 17 pM; the “ADCP EC50 … (FIG. 14B)” value is 120 pM. Moreover, the “ADCP EC50 … (FIG. 14D)” value with human CCR8 [4] stood at 79 pM.

B5: hu.Ab5.H1L1 (antibody, human IgG1, V domains shown)
VH: EQQLLESGGGLVQPGGSLRLSCAVSGIDLSTYAMGWVRQAPGKGLEWIGLIHRSGRTYYATWAKGRFTISKDSSKTTVYLQMNSLRAEDTAVYFCTRSYPDYSATASIWGPGTTVTVSS
VL: DIQVTQSPSSLSASVGDRVTITCQASENIANALAWYQQKPGKPPKFLIYGASNLASGVPSRFSGSGSGTDFTFTISSLQPEDIATYYCQQAYYGNSFVEGTFGGGTKVEIK
With B5, the “ADCC EC50 (calcein release; NK-92_F158 effector cells, CHO/hCCR8.Gna15 target cells)” value with human CCR8 [1] is 20 pM.

B6: hu.Ab3.H1L1 (antibody, human IgG1, kappa, V domains shown)
VH: EQQLVESGGGLVQPGGSLRLSCAVSGFSLSSYAMSWVRQAPGKGLEWIGVISASGRIIYATWAKGRFTISKDSAKTSVYLQMNSLRDEDTAVYFCARGVPSYSLVMSDWGPGTTVTVSS
VL: EPVMTQSPATLSVSPGERATLSCQASQSISNALAWYQQKPGQPPRLLIYEVSKVASGVPARFSGSGSGTEFTLTISSLQSEDFAVYYCQSAYYGNSYVWGAFGQGTKVEIKR
On to B6, for which, in the assay with human CCR8 [1], the “ADCC EC50 (calcein release; NK-92_F158 effector cells, CHO/hCCR8.Gna15 target cells)” value is 20 pM.

B7: Afuc.hu.Ab5.H13L1 (antibody, human IgG1, kappa)
heavy: not shown
light: DIQVTQSPSSLSASVGDRVTITCQASENIANALAWYQQKPGKPPKFLIYGASNLASGVPSRFSGSGSGTDFTFTISSLQPEDIATYYCQQAYYGNSFVEGTFGGGTKVEIKRTVAAPSVFIFPPSDEQLKSGTASVVCLLNNFYPREAKVQWKVDNALQSGNSQESVTEQDSKDSTYSLSSTLTLSKADYEKHKVYACEVTHQGLSSPVTKSFNRGEC
modifications: afucosylated Fc N-glycan (position Asn 299 as printed); about 80% to about 95% afucosylation
notes: also called afucosylated hu.Ab5.H13L1; Afuc.Ab5.H13L1
As for B7, in assay [5], the “fold increase in binding potency” value was ~10 fold. The “fold increase in binding potency” value in assay [6] was ~10 fold. In the assay with human CCR8 [4], the “ADCP EC50 … (FIG. 14A)” value turned out to be 17 pM; the “ADCP EC50, macrophages of donor HR/FF (FIG. 14E)” value is 22 pM; the “ADCP EC50, macrophages of donor HR/VF (FIG. 14C)” value came to 10 pM; the “ADCP EC50 … (FIG. 14B)” value amounted to 200 pM. Further, the “ADCP EC50 … (FIG. 14D)” value with human CCR8 [4] was determined as 500 pM.

B8: hu.Ab5.H13L1 (antibody, human IgG1, kappa)
heavy: not shown
light: DIQVTQSPSSLSASVGDRVTITCQASENIANALAWYQQKPGKPPKFLIYGASNLASGVPSRFSGSGSGTDFTFTISSLQPEDIATYYCQQAYYGNSFVEGTFGGGTKVEIKRTVAAPSVFIFPPSDEQLKSGTASVVCLLNNFYPREAKVQWKVDNALQSGNSQESVTEQDSKDSTYSLSSTLTLSKADYEKHKVYACEVTHQGLSSPVTKSFNRGEC
notes: Fucosylated human IgG1 kappa; also called Ab5 variant; huCCR8 antibody hu.Ab5.H13L1 (hIgG1)
For the molecule B8, in the assay with cynomolgus monkey CCR8, the “IC50 (read off the curve)” value was ~40 pM.

Usually Kd stands for the free concentration of one partner at which half of the binding sites on the other are occupied at equilibrium, for simple one-to-one binding.
